Data published in publication PMC3299407 (Biochemical Journal, 2011).

Target: the molecule itself
Assay: native gel or EMSA

B1: myc-laforin wild type (pCMVmyc-laforin WT) (natural protein, human, UniProt O95278 1-331, looked up)
chain: MRFRFGVVVPPAVAGARPELLVVGSRPELGRWEPRGAVRLRPAGTAAGDGALALQEPGLWLGEVELAAEEAAQDGAEPGRVDTFWYKFLKREPGGELSWEGNGPHHDRCCTYNENNLVDGVYCLPIGHWIEATGHTNEMKHTTDFYFNIAGHQAMHYSRILPNIWLGSCPRQVEHVTIKLKHELGITAVMNFQTEWDIVQNSSGCNRYPEPMTPDTMIKLYREEGLAYIWMPTPDMSTEGRVQMLPQAVCLLHALLEKGHIVYVHCNAGVGRSTAAVCGWLQYVMGWNLRKVQYFLMAKRPAVYIDEEALARAQEDFFQKFGKVRSSVCSL
  stoichiometry N: 2

B2: myc-laforin S25D (pCMVmyc-laforin S25D) (natural protein, human, UniProt O95278 1-331, looked up)
chain: MRFRFGVVVPPAVAGARPELLVVGDRPELGRWEPRGAVRLRPAGTAAGDGALALQEPGLWLGEVELAAEEAAQDGAEPGRVDTFWYKFLKREPGGELSWEGNGPHHDRCCTYNENNLVDGVYCLPIGHWIEATGHTNEMKHTTDFYFNIAGHQAMHYSRILPNIWLGSCPRQVEHVTIKLKHELGITAVMNFQTEWDIVQNSSGCNRYPEPMTPDTMIKLYREEGLAYIWMPTPDMSTEGRVQMLPQAVCLLHALLEKGHIVYVHCNAGVGRSTAAVCGWLQYVMGWNLRKVQYFLMAKRPAVYIDEEALARAQEDFFQKFGKVRSSVCSL
  stoichiometry N: 2
